Experimental data from publication PMC8085926.

Substrate: CCC(=O)SCCNC(=O)CCNC(=O)[C@H](O)C(C)(C)COP(=O)(O)OP(=O)(O)OC[C@H]1O[C@@H](n2cnc3c(N)ncnc32)[C@H](O)[C@@H]1OP(=O)(O)O
Test: purified protein
Conditions: hydrolysis of propionyl-CoA to propionate; conditions only in supplement

B1: PP_4975 (Pseudomonas putida KT2440) (protein)
chain: MNFHTRKWVKPEDLNPNGTLFGGSLLRWIDEEAAIYAIVQLGNQRVVTKYMSEINFVSASRQGDIIELGITATAFGRTSITLKCEVRNKITRKSILTVDKMVFVNLGEDGLPAAHGRTEIKYVQDQFPDSAVE
B1 showed a Km of 144.13 µM, a kcat of 1300 s⁻¹ and a kcat/Km of 9.02e+06 M⁻¹ s⁻¹.

B2: HiYciA (Haemophilus influenzae Rd KW20) (protein)
chain: MSANFTDKNGRQSKGVLLLRTLAMPSDTNANGDIFGGWIMSQMDMGGAILAKEIAHGRVVTVAVESMNFIKPISVGDVVCCYGQCLKVGRSSIKIKVEVWVKKVASEPIGERYCVTDAVFTFVAVDNNGRSRTIPRENNQELEKALALISEQPL
Work on B2 yielded a Km of 26.84 µM, a kcat of 490 s⁻¹ and a kcat/Km of 1.83e+07 M⁻¹ s⁻¹.
